According to patent US20230365670A1 (SCOUT BIO, published 2023):
Residue numbers refer to the chain shown, from its start.

B1: ca_αD11_HCCDR2(L/V) (caninized anti-NGF antibody) (antibody, V domains shown)
VH: EVTLQESGPGLVKPSQTLSLTCVVSGFSLTNNNVNWVRQRPGRGLEWMGGVWAGGATDYNSAVKSRISITRDTAKNQVSLQLSSMTTEDTAVYYCARDGGYSSSTLYAMDAWGQGTLVTVSS
VL: EIVMTQSPASLSLSQEEKVTITCRASEDIYNALAWYQQKPGQAPKLLIYNTDTLHTGVPSRFSGSGSGTDYSFTISSLEPEDVAVYFCQHYFHYPRTFGAGTKVELK
notes: The antibody was detected with goat anti-canine IgG-HRP; also called ca_αD11_HCCDR2(LN); CaNGF
B2: fe_αD11_HCCDR1(F/L) (felinized anti-NGF monoclonal antibody, F to L at position 2 of heavy chain CDR1) (antibody, V domains shown)
VH: QVQLMESGADLVQPSESLRLTCVASGLSLTNNNVNWVRQAPGKGLEWMGGVWAGGATDYNSALKSRLTITRDTSKNTVFLQMHSLQSEDTATYYCARDGGYSSSTLYAMDAWGQGTTVTVSA
VL: DIEMTQSPLSLSATPGETVSISCRASEDIYNALAWYLQKPGRSPRLLIYNTDTLHTGVPDRFSGSGSGTDFTLKISRVQTEDVGVYFCQHYFHYPRTFGQGTKLELKR
notes: also called fe1_αD11_HCCDR1(F/L)
B3: fe_αD11_HCCDR2(L/V) (felinized anti-NGF monoclonal antibody, L to V at position 14 of heavy chain CDR2) (antibody, V domains shown)
VH: B2 VH with M5V, A9G, S15G, E16G, L27F, L63V
VL: B2 VL
notes: also called fe_αD11+HCCDR2(LN); fe_αD11_HCCDR2(LN)
B4: fe_αD11 (felinized anti-NGF monoclonal antibody with the CDR sequences of rat αD11) (antibody, V domains shown)
VH: B2 VH with M5V, D10E, S15G, V23A, L27F
VL: B2 VL with A13V, T18S
notes: also called fe1_αD11

Legend:
mouse (murine) NGF [1] = target: T1, mouse (murine) NGF (mouse (murine), UniProt P01139 122-241, limits assumed); assay: ELISA, plates coated with 0.1 µg/ml muNGF, antibody at 100 to 1.56 ng/ml for the standard curve, goat anti-canine IgG-HRP detection
T1 construct: also called muNGF
Description: Pharmacokinetic (PK) studies were conducted in healthy dogs. Four animals were administered purified ca_αD11_HCCDR2(LN) subcutaneously (SC) at 1.0 mg/kg body weight on Day 0 and Day 28 of the study. The ca_αD11_HCCDR2(LN) antibody carries the same CDR sequences as described in Tables 3 and 4, below. Serum concentrations of ca_αD11_HCCDR2(LN) were assessed over 56 days using an NGF-binding ELISA, as detailed below. Pharmacokinetic parameters were determined using PKSolver software (Zhang Y et al. Computer Methods and Programs in Biomedicine. 2010; 99(3):306-314). The emergence of anti-drug antibodies was assessed at Days 28 and 56 using a bridging electrochemiluminescence (ECL) assay, as detailed below.
The concentration of ca_αD11_HCCDR2(LN) in dog serum was determined using an NGF-binding ELISA. Briefly, ELISA plates were coated with 0.1 μg/ml murine NGF (muNGF) and blocked with PBS/0.05% Tween 20/1% BSA. muNGF coated wells were incubated for 1 hour at room temperature with serum diluted in PBS/0.05% Tween 20/1% BSA (100 μl/well). Antibody concentrations ranging from 100 ng/ml to 1.56 ng/ml were used to establish a standard curve. After washing, the plates were incubated with a 1/10,000 dilution of goat anti-canine IgG-HRP in PBS/0.05% Tween 20/1% BSA. […] Development was stopped by the addition of 2M H₂SO₄ and absorbance read at 450 nm and background was subtracted.

mouse (murine) NGF [2] = target: T1, mouse (murine) NGF; assay: ELISA, plates coated with 0.1 µg/ml muNGF, antibody at 100 to 1.56 ng/ml for the binding curve, goat anti-feline IgG-HRP detection
Description: Pharmacokinetic (PK) studies were conducted in healthy cats. Four animals were administered each of the felinized anti-NGF antibodies (fe_αD11, fe_αD11+HCCDR1(F/L) and fe_αD11+HCCDR2(LN)) subcutaneously (s.c.) at 2.0 mg/kg on Days 0, 21, 42 and 63. Serum concentrations of the antibodies were assessed over 91 days. The concentration of each antibody in the serum was determined using an NGF-binding ELISA. Briefly, ELISA plates were coated with 0.1 μg/ml mouse (murine) NGF (muNGF) and blocked with PBS/0.05% Tween 20/1% BSA. muNGF-coated wells were then incubated for 1 hour at room temperature with antibody preparations, diluted in PBS/0.05% Tween 20/1% BSA (100 μl/well). Antibody concentrations ranging from 100 ng/ml to 1.56 ng/ml were used to establish a binding curve. After washing, the plates were incubated with a 1/5,000 dilution of goat anti-feline IgG-HRP in PBS/0.05% Tween 20/1% BSA. Plates were washed with PBS/0.05% Tween 20 and developed by the addition of TMB substrate. Development was stopped by the addition of 2M H₂SO₄, absorbance read at 450 nm and background values were subtracted from the absorbance readings. The non-compartmental pharmacokinetic parameters of the three felinized anti-NGF antibodies post-dose 1 and 4 were calculated using PKsolver. software.

T1 sequence (P01139 122-241 limits assumed): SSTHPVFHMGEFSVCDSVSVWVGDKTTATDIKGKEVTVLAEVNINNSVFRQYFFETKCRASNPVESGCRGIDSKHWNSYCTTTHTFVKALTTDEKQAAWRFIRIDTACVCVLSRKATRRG

Binder	binding result (mouse (murine) NGF [1])	binding result (mouse (murine) NGF [2])
B1	binds	
B2		binds
B3		binds
B4		binds
